Laboratory results reported in patent US20110313028A1 (VIRGINIA COMMONWEALTH UNIVERSITY, published 2011).

Columns and labels:
c-Fos = molecular target: T1, c-Fos (UniProt P01100 1-380, limits assumed); test: similar assays (two-hybrid / co-immunoprecipitation; not specified)
T1 construct: Tested in 'similar assays'; The construct is not described

ATF-2 = molecular target: T2, ATF-2 (UniProt P15336 1-505, limits assumed); test: as above
T2 construct: Tested in 'similar assays'; The construct is not described
T2 sequence (looked up): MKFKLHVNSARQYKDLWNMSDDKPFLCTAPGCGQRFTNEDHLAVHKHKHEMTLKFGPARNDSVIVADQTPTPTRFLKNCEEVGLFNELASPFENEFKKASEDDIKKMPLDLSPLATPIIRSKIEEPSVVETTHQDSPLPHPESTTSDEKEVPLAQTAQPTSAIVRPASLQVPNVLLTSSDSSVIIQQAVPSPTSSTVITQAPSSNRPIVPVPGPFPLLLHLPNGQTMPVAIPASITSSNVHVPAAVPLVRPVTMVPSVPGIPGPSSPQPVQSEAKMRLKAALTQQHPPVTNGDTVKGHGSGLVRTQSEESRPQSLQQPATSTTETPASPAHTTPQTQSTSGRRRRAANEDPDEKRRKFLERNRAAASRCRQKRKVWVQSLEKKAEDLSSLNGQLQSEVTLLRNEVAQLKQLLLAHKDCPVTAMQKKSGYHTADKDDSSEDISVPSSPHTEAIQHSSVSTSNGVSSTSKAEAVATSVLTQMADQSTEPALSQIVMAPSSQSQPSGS

T1 sequence (P01100 whole entry): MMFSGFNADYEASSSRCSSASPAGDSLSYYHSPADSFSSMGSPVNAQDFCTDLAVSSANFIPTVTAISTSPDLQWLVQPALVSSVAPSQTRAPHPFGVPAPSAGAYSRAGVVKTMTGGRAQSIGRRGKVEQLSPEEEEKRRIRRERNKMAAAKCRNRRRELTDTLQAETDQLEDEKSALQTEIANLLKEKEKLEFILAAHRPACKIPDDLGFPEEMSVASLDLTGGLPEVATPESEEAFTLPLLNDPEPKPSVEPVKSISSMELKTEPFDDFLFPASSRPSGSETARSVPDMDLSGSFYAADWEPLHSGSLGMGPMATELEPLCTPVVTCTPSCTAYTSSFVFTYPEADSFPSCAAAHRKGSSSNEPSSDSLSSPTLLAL

binding result (c-Fos): no binding
binding result (ATF-2): no binding
B1: HA-tagged SARI (Suppressor of AP-1, Regulated by IFN), expressed in HeLa cells from Ad.SARI (other)
chain: MHLCGGNGLLTQTDPKEQQRQLKKQKNRAAAQRSRQKHTDKADALHQQHESLEKDNLALRKEIQSLQAELAWWSRTLHVHERLCPMDCASCSAPGLLGCWDQAEGLLGPGPQGQHGCREQLELFQTPGSCYPAQPLSPGPQPHDSPSLLQCPLPSLSLGPAVVAEPPVQLSPSPLLFASHTGSSLQGSSSKLSALQPSLTAQTAPPQPLELEHPTRGKLGSSPDNPSSALGLARLQSREHKPALSAATWQGLVVDPSPHPLLAFPLLSSAQVHF
notes: also called SARI protein; WT SARI; not shown: HA tag
